Experimental data taken from patent US6001353A, “20α-alpha-hydroxy steroid dehydrogenase related material and methods” (priority 1997, dated 1999).
Blank lines part the entries; values can stand above or below the molecule they belong to.

Tests used:
20α-HSD mRNA = assay: Northern blot of corpus luteum 20α-HSD mRNA in hypophysectomized pregnant rats; assay type: in vivo, rat; conditions: rats hypophysectomized day 3, 125 μg twice daily, tissue on day 7
Experimental: For these studies, Holtzman pregnant rats were hypophysectomized on day 3 and treated with either prolactin (NIADDK oPRL-18, 125 μg, twice daily) or with vehicle (control). On day 7, corpus luteum and various other tissues (brain, decidua, ovary, and uterus) were obtained for analysis.
Total RNA from the harvested tissues was isolated by the method of Chomzynski and Sacchi [Anal. Biochem. 162:156-159 (1984)] and equal aliquots (20 μg) were electrophoresized and transferred to nylon membranes, or slot blotted onto Genescreen (DuPont, Wilmington, Del.) membrane. RNA was prehybridized for 16 hours at 42° C. in 40% formamide, 6×SSC, 5×Denhardt's, 20 mM NaH2 PO4, 0.2% SDS and 100 μg/ml salmon sperm DNA. Hybridization was completed in the same solution with the addition of ^32 P-labeled rat 20α-HSD cDNA (10^6 cpm/ml) at 42° C. for 12-16 hours. Blots were washed twice in 05.×SSC and 0.1% SDS (15 minutes, room temperature), twice in 0.2×SSC and 0.1% SDS (15 minutes, 42° C.), twice in 0.2×SSC and 0.1% SDS (15 minutes, 56° C.) and twice in 01.×SSC and 0.1% SDS (15 minutes, 56° C.).

purified rat liver PKC = assay: In vitro kinase assay, phosphorylation of 20α-HSD by PKC; assay type: biochemical; conditions: bacterially expressed enzyme, [γ-32P]ATP
Experimental: (§1) Purified recombinant 20α-HSD (of the bacterial expression system) was incubated with various protein kinases after an initial incubation with alkaline phosphatase (to ensure that the protein was in a non-phosphorylated state) and subsequently assayed for 20α-HSD activity.
(§2) More particularly, purified bacterially expressed recombinant 20α-HSDwas first incubated in […] Tris-HCl (pH 8), 1 mM MgCl2, 1 mg/ml BSA, 0.5 mM dithiothreitol, and 60 U alkaline phosphatase coupled to agarose beads for 30 min. at 30° C. After centrifugation, the supernatant containing 20α-HSD was used as a substrate in various in vitro kinase assays. The protein kinase A (PKA), protein kinase C (PKC) and insulin receptor-associated tyrosine kinase activities were measured as described previously [Raz et al., Biochem. J. 269:603-607 (1990), Azhar et al., Am J. Physiol, 260:E1-E7 (1991)]. src kinase (p60^src) activity was assayed as described by Simonson and Herman [Simonson et al., J. Biol Chem., 268:9347-9357 (1993)]. […]

protein kinase A (PKA) = assay: In vitro kinase assay, phosphorylation of 20α-HSD by PKA; assay type: biochemical; conditions: bacterially expressed enzyme, [γ-32P]ATP
Experimental: as §1, §2

[1] = tested on: insulin receptor-associated tyrosine kinase; assay: In vitro kinase assay, phosphorylation of 20α-HSD by insulin receptor tyrosine kinase; assay type: biochemical; conditions: bacterially expressed enzyme
Experimental: as §1
(§3) More particularly, purified bacterially expressed recombinant 20α-HSDwas first incubated in […] Tris-HCl (pH 8), 1 mM MgCl2, 1 mg/ml BSA, 0.5 mM dithiothreitol, and 60 U alkaline phosphatase coupled to agarose beads for 30 min. at 30° C. After centrifugation, the supernatant containing 20α-HSD was used as a substrate in various in vitro kinase assays. The protein kinase A (PKA), protein kinase C (PKC) and insulin receptor-associated tyrosine kinase activities were measured as described previously [Raz et al., Biochem. J. 269:603-607 (1990), Azhar et al., Am J. Physiol, 260:E1-E7 (1991)]. src kinase (p60^src) activity was assayed as described by Simonson and Herman [Simonson et al., J. Biol Chem., 268:9347-9357 (1993)].

[2] = Cyclooxygenase assay: conversion of [3H]arachidonic acid; assay type: biochemical; conditions: purified preparations from either expression system
Experimental: (§4) To test for prostaglandin endoperoxide synthase type catalytic activity of recombinant 20α-HSD, both cyclooxygenase activity (which converts arachidonic acid into the hydroperoxide, PGG2) and peroxidase activity (which reduces PGG2 and other hydroperoxides to the corresponding alcohol, such as PGH2) were measured. The cyclooxygenase assay was performed by following the conversion of [^3 H] arachidonic acid [Dupont-New England Nuclear Research Products, Boston, Mass.] to [^3 H]PHG2 and [^3 H]PHE2 [Mitchell et al. Proc. Natl. Acad. Sci. USA 90:11693-11697, 1994]. Peroxidase activity was measured by monitoring the oxidation of N,N,N',N', tetramethyl-p-phenylenediamine at 611 nm [Iwata et al., Arch. Biochem. Biophys. 282:70-77 (1990)].

recombinant 20α-HSD = target: T1, recombinant 20α-HSD (Rattus norvegicus, UniProt P51652); assay: Catalytic activity of phosphorylated versus non-phosphorylated 20α-HSD, radiochemical; assay type: biochemical; design: a DNA fragment of 1.2 Kb containing the entire coding region of 20α-HSD; GST (removed with thrombin) (N, cleaved yes); made in house; host or cells: E. coli DH5α (pGEX-4T-2)
T1 sequence (P51652 1-323): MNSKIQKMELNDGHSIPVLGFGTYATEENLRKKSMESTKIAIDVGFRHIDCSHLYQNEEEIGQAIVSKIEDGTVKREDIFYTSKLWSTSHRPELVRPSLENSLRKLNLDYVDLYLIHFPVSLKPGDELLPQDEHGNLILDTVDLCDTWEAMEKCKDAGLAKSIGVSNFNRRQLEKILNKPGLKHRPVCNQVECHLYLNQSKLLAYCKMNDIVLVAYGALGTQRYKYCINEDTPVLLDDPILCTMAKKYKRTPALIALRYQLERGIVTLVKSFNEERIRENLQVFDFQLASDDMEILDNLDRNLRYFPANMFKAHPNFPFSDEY
Experimental: Enzyme activity of the recombinant 20α-HSD was determined by the rate of conversion of [1-2^3 H]-20α-hydroxy-pregn-4-ene-3-one (20α-hydroxprogesterone) to [1,2^3 H]progesterone in the presence of NADPH as described by Jones & Hsueh [J. Biol. Chem. 256:1248-1254 (1981)]. Enzyme activity was measured in this manner due to the fact that in an in vitro setting the reaction may be reversed, i.e. conversion of 20α-hydroxyprogesterone to progesterone. The assay mixtures (0.05 ml) contained 100 μM [1,2^3 H]hydroxyprogesterone [Dupont-New England Nuclear Research Products, Boston Mass.] […] Following incubation at 37° C. for 30 minutes, the [^3 H]progesterone content of each sample was determined after isolation by thin layer chromatography isolation. One unit of enzyme activity is defined as that amount of enzyme catalyzing the formation of 1 nmol of [^3 H]progesterone/minute from [1,2^3 H]hydroxyprogesterone. Specific activity is expressed as units/min/mg protein. The protein concentration was determined by the Bradford method using bovine serum albumin [Sigma Chemical Co, St. Louis, Mo.] as the standard [Bradford, Anal. Biochem. 72:248-254 (1976)]. […] Acta. 799:51-58 (1984); Noda et al., Biochim Biophys. Acta. 1079:112-118 (1991)]. […]

[3] = Peroxidase activity: oxidation of tetramethyl-p-phenylenediamine at 611 nm; assay type: biochemical; conditions: purified preparations from either expression system
Experimental: as §4

src kinase (p60^src) = assay: In vitro kinase assay, phosphorylation of 20α-HSD by src kinase; assay type: biochemical; conditions: bacterially expressed enzyme
Experimental: as §1, §3

[4] = tested on: Pregnant Sprague-Dawley rats; assay: Anti-reproductive effect in pregnant rats: serum progesterone (RIA) and termination of pregnancy; assay type: in vivo, rat
Experimental: Pregnant Sprague-Dawley rats were treated with purified 20α-HSD produced by a bacterial expression system (see Example 1) to assess the effect of the enzyme on (1) progesterone levels and (2) the possible termination of pregnancy. More particularly, animals were divided into two treatment groups (7 rats per group: 6 receiving treatment, 1 control) and were injected (intraperitoneally) with the purified recombinant 20α-HSD and an eqimolar dose of NADPH. Injections were administered on day 8 of pregnancy and continued for 72 hours.
Group 1 received intraperitoneal injections of the purified 20α-HSD (167 μg with an equimolar dose of NADPH) every 4 hours, continuing for 72 hours. Group 2 received intraperitoneal injections of the purified 20α-HSD (250 μg with an equimolar dose of NADPH) every 6 hours, continuing for 72 hours. The control treatment groups received an equal amount of GST alone with an eqimolar dose of NADPH. Blood samples were collected every 12 hours via jugular veins. Serum progesterone levels were determined by standard radioimmunoassay techniques [Gibori et al., Endocrinology 100:1483-1495 (1977)].

[5] = Group 1 protocol, laparoscopy at 72 hour end point

B1: prolactin (protein, UniProt P01240 31-229, looked up)
Prolactin: TPVCPNGPGNCQVSLRDLFDRAVMVSHYIHNLSSEMFNEFDKRYAQGKGFITMALNSCHTSSLPTPEDKEQAQQTHHEVLMSLILGLLRSWNDPLYHLVTEVRGMKGVPDAILSRAIEIEEENKRLLEGMEMIFGQVIPGAKETEPYPVWSGLPSLQTKDEDARHSAFYNLLHCLRRDSSKIDTYLKLLNCRIIYNNNC
notes: prolactin (NIADDK oPRL-18)
expression of 20α-HSD mRNA in corpora lutea (20α-HSD mRNA): markedly reduced

phosphorylation of 20α-HSD by PKC (purified rat liver PKC): readily phosphorylated | phosphorylation of 20α-HSD by PKA (protein kinase A (PKA)): readily phosphorylated | phosphorylation of 20α-HSD by insulin-receptor-associated tyrosine kinase [1]: failed to phosphorylate | 20α-HSD activity after phosphorylation with PKA (recombinant 20α-HSD): not significantly affected | 20α-HSD activity after phosphorylation with PKC (recombinant 20α-HSD; ATP-Mg2+, diacylglycerol, phosphatidylserine): unaffected | phosphorylation of 20α-HSD by src kinase (src kinase (p60^src)): failed to phosphorylate
B2: 20α-hydroxysteroid dehydrogenase (protein)
chain: T1 sequence (P51652 1-323)
cyclooxygenase activity [2]: Neither peroxidase not cyclooxygenase activity was detected | peroxidase activity [3]: Neither peroxidase not cyclooxygenase activity was detected | time to significant decline of serum progesterone levels ([4]; Group 1: 167 μg i.p. every 4 hours): ≤ 48 h | animals aborted totally [4, 5]: 5 animals | animals partially aborting [4, 5]: 2 animals | time to significant decline of serum progesterone levels ([4]; Group 2: 250 μg i.p. every 6 hours): 60 h | time to termination of pregnancy ([4]; pregnant rats, i.p. with equimolar NADPH from day 8 of pregnancy): ≤ 72 h | circulating progesterone ([4]; pregnant rats, i.p. with equimolar NADPH from day 8 of pregnancy, bacterially expressed enzyme): marked decrease
